Assay results: paper PMC3135172 (Cell, 2011)
Where no end group is shown, it is not given here.

Target: BPTF bromodomain (human)
Experiment: ITC

Kd: 69 ± 1 µM
Binder: GKGLGK(Ac)GGAKR (not fully specified) [H4K12ac peptide]
